Here are results for 41 sequences from the nanobody polyreactivity screen of Harvey et al. (2022).

The nature of this data set: yeast display, Sf9 membrane polyspecificity reagent, FACS + sequencing; frameworks hold sequencing errors. Summed up:
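In a synthetic yeast display library (Saccharomyces cerevisiae BJ5465), nanobody expression was induced with galactose for 36–48 hours. FACS gates were set low and high (top ~1%) using anti-HA fluorescence for expression and streptavidin fluorescence for binding of the Sf9 membrane reagent. Each polyreactivity label is drawn from the gate of origin.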
Turning to “QVKLVESGGGLVQAGGSLRLSCAASGRILGYYAMGWYRPAPGKERELVAAINRGGRTYYADSVKGRFTISRDNAKNTVYLEMYSLKPEDTAVYYCAAVLYNQWALVYWFGYNYWGQGTQVSVSS”, the “polyreactivity (PSR sort gate)” value is recorded as “high polyreactivity”.
The entry for “QVQLVESGGALVQAGGSLRLSCAASGFTFRTYAMGWYRQAPRKERELVADISGSGGSTYYADSVKGRFTISRDNPKNTVYLQMNSLKPEDTAVSYCAADYASWSNWGYEYWGQGTQVTVSS” is “high polyreactivity”; for “QVQLVESGGGLVQAGGSLRLSCAASGIIFKVNDMGWYRQAHGKEREFVAAITYSGDGTFYADSVKGRFTISRDNAKNTVYLQMNSLKPEDTAVYYCAADLPESPESYYDTDDYWGQGPQVTVSS” it is “low polyreactivity”; for “QVQLVESGGGLVQAGGSLRLSCAASGFIFYNYAMGWYRQAPGKVRELVAAISASGGRTYYADSVKGRFTISRDNAKNTVYLQMNRLKPEDTAVYYCNARVNYKGYDYWGQGTQVTVSS” it is “high polyreactivity”.
The entry for “QVQLVESGGGLVQAGGSLRLSCAASGSIFSTYAMGWYRQAPGKERELVATINYSGGSTYYADSVKGRFTISRDNAKNTVYLQMNSLKPEDTAVYYCNTGPFVGFDYWGQGTQVTVSS” is “low polyreactivity”; for “QFHLVESGGGLVQAGGSLRLSCSASGLTFYQNSLGWSRQAPGKEMELVAAIRWGGGSTYYADSVKGRFTISRDNAKNTVYLQMNCLKPVDTAVYYCAAEYYGWPYDYWGQGTQVTVSS” it is “high polyreactivity”; for “QVQLVESGGGLVQAGGSLRLSCAASGRIFDGNARGWYIQAPGKERELVAAISRNGGTYYADSVKGRFTISRDNAKNTVYLQMNSLKPEDTAVYYCAADPSSVGYHVEYDYWGQGTQVTVSS” it is “low polyreactivity”.
Take “QVQLVESGGGLVQAGGSLRLSCAASGLIFSVYAMGWYRQAPGKERELVAAISWSGSTYYADSVKGRFTISRDNAKNTVYLQMNSLKPEDTAVYYCAAEYDYDHFYWMDYWGQGTQVTVSS”: the “polyreactivity (PSR sort gate)” value is recorded as “high polyreactivity”.
The result for “QVQLVESGGGLVQAGGSLRLSCAASGSIFISYAMGWYRQAPGKERELVAAISSGGSTNYADSVKGRFTISRDNAKNTVYLQMNSLIPEDTAVYYCAAASAAGYDYWGQGTQVTVSS” reads “low polyreactivity”; that for “QVQLVESGGGLVQAGGSLRLSCAASGSTFSPYAMGWYRQAPGKERELVAAITSSGGSTYYADSVKGRFTISRDNAKNTVYLQMNSLKPEDTAVYYCAAEGYYTSTYDLYDYYWGQGTQVTVSS”, “low polyreactivity”; that for “QVQLEDSGGGLVQAGGSLRLSCAASGFIFRGYGMGWYRQAPGKERELLASITTGGRTNYADSVKGRFTISRDNAKNTVYLQMNCLKPEDTAVYYCAATYYLRLRRPYWQGFNYWGQGTQVTVSS”, “high polyreactivity”.
The entry for “QVQLVESGGGLVQAGGSLRLSCAASGSIFGGYGMGWYRQAPGKERELVAAINSGSSTYYADSVKGRFTISRDNAKNTVYLQMNSLKPEDTAVYYCAARPYPHSAYEGDYWGRGTQVTVSS” is “low polyreactivity”.
The result for “QVQLVESGGGLVQAGGSLRLSCAASGGIFTLYVMGWYRQAPGKERELVAAISRTGGSTYYADSVKGRFTISRDNAKNTVYLQMNSLKPEDTAVYFCAALYRGGTRYGGYDYWGQGTQVTVSS” reads “high polyreactivity”; that for “QVQLVESGGGLVQAGGSLRLSCAASGSTFHYYVMGWYRQAPGKERELDAAIRRSGGTTYYADSVKGRFTISRDNAKNTVYLQMNSLKPEDTAVYYCAAYFFHYHFYQAAYDYWGQGTQVTVSS”, “low polyreactivity”.
As to “QVQLVESGGGLVQAGGSLRLSCAASGIIFYDYAMGWYRQAPGKERELVAAITSGGSTNYADSVKGRFTISRDNAKNTVYLQMNSLKPEDTAVYYCAATYWSWISLRFYWGQGTQVTVSS”, the “polyreactivity (PSR sort gate)” value is “low polyreactivity”.
Take “QVQLVESGGCIVQAGGSLRLSCAASGRTFRAYAMGWYRQAPGKEREFVAAITKRGGGTYYADSVKGRFTISRDNAKNTVYLQMNILKPEDTAVYYCAAESGSWYSRMDYWGQGTQVTVSS”: the “polyreactivity (PSR sort gate)” value is “high polyreactivity”.
The result for “QVQLVESRGGLVQAGGSLRLSCAASGSIFIYNAMGWYRQAPGKERELVAANSSSGGSTYYADSVKGRFTNSRDNEKNTVYLQMNSQNPEDTAVYYCAARTYYVRGLRGRPGMDYWGQGTQVTVSS” reads “low polyreactivity”; that for “QVQLVESGGGVVQAGGSLRLSCAASGMGWYRQAPGKERELVATITTGGTYADSVKGRFTISRDNAKNTVYLQMNSLKPEDTAVYYCAADGLGSVYYLRYNYWGQGTQVTVSS”, “low polyreactivity”.
The result for “QVQLQESGGGLVQAGGCLRLSCAASGSIFTYAVMGWYRQAHGKEHELVATIDTGSSTYYADSVKGRITISRDNAKNTLYLQMNSLKPEDTAVYYCAVNTYCRVRYRYWGQGTQVTVSS” reads “high polyreactivity”; that for “QVQLVESGGGLVQAGGSLRLSCAASGSIFRYNAMGWYRQAPGKERELVAGITWGGGRTYYADSVKGRFTISRDNAKNTVYLQMNSLKPEDTAVYYCNAVRKYKGDSSFDYWGQGTQVTVSS”, “high polyreactivity”.
The result for “QVQLVESGGGLVQAGGILRLSCAASGSTFYENAMGWYRQAPGKERELVAAITWSGGRTYYADSVKGRFTISRDNAKNTVYLQMNSLKPEDTAVYYCNARARSRKFYYWGQVTQVTVSS” reads “high polyreactivity”; that for “QVQLVESGGGLVQAGGSLRLSCAASGSTFYKYAMGWYRQAPGKERELVAVINYRGGSTYYADSVKGRFTISRDNAKNTVYLQMNSLKPEDTAVYYCAARQYWQNRRQYYYWGQGTQVTVSS”, “high polyreactivity”; that for “QVQLVESGGGLVQAGGSLRLSCAASGFTIYGYAMGWYSQAPGKERELVAAISSSGGRTYYADSVKGRCTISRDNAKNTVYLQMNSLKPEDTAVYYCAAEYRSYRDGYWGQGTQVTVSS”, “high polyreactivity”.
For “QVQLVESGGGLVQAGGSLRLSCAASGRIFHANAMGWSRQAPGKERELVAGISRNGGRTYYADSVKGRFTISRDNAKNTVYLQMNSLKPEDTAVYYCNALHWQSKELDYFWGQGTQVTVSS”, the “polyreactivity (PSR sort gate)” value is given as “high polyreactivity”.
The entry for “QVQLVESGGGLVQAGGSLRLSCAASGSILVEYAMGWYRQAPGKERELVAAISSNGGSTYYADSVKGRFTISRDNAKNTVYLQMNSLKPEDTAVYYCATRQSWSDYYLNVDYDYWGQGTKVTVSS” is “low polyreactivity”.
The entry for “QVQLVESGGGLVQAGGSLRLSCAASGRISTYYTMGWYRQAPGKERELVAAISWSGTSTYYADSVKGRFTISRDNAKNTVYLQMNSLKPEDTAVYYCNARWRYPLDSVTDDYWGQGTQVTVSS” is “high polyreactivity”.
The entry for “QVQLVESGGGLVQAGGSLRLSCAASGFIFGANTMGWYRQAPGKERELVATISWSGGSTYYADSVKGRFTISRDNAKNTVYLQMNSLKPEDTAVYYCAAPGVTYGFRSDYWGQGTQVTVSS” is “low polyreactivity”; for “QVQLVESGGGLVQAGGSLRLSCAASGRIFYAYAMGWYRPAPGKERELVAAITWRGGRTFYADSVKGRFTISRDNAKNTVYLQMNSLKPEDTAVYYCATRGAPYGMDYWGQGTQVTVSS” it is “high polyreactivity”; for “QVQLVESGGGLVQAGGSLRLSCAASGSTFRNYAMGWYRQAPGKDRELVAAISGSGGRTNYADSVKGRFTISRDNAKTTVYLQMNSLKPEDTAVYYCAASGGRNWWAARNYYWGQGTQVTVSS” it is “low polyreactivity”.
In the case of “QVQLVESGGGLVQAGGSLRLSCAASGSTFPVYAMGWYRQAPGKERELVARISSGSSTNYADSVKGRFTNSRDKAKNTVYLQMNSLKPEDTAVSYCAAQTPRFVWQKGPLDSEEYWGQGTQVTVSS”, the “polyreactivity (PSR sort gate)” value is given as “high polyreactivity”.
Consider “QVQLVETGGGLVQAGGSLRLSCDASGRIFGGYAMGWYRKAPGKERELVAAISASGGRTYYADSVKGRFTISRDNAKNTVYLQMNSLKPEDNAVYYCAASFRRTSLRWLGEYWGQGTQVTVSS”, for which the “polyreactivity (PSR sort gate)” value is given as “high polyreactivity”.
The result for “QVHLVESGGGLVQAGGSLRLICAASGYTFAFYAMGCYRQAPGKERELVAAISAGGGRTYYADSVKGRFTISRDNANNTVYLQMNSLKPEDTAVYYCATDLIQGAAPFRYDYWGQGTQVTVSS” reads “low polyreactivity”; that for “QVQLVESGGGLVQAGGSLRLSCAASGSIFNRYARGWYRQAPGKERELVAAISSTGSTYYADSVKGRFTISRDNAKNTVYLQMNSLKPEDTAVYYCNADATHDWLRVDTYEYWGQGTQVTVSS”, “low polyreactivity”; that for “QDHLVESWGGLIQAGCSLRISCAASGSITVYNAMGWYRQAPWKERELLAAITGGVTTNYADSVKGRFTISRDNAKTTFYLLMNSLKPEDTAVYYCAKSQIPFGLDSPVDYWGQGTQVNVSS”, “low polyreactivity”.
The entry for “QVQLVESGGGVVQAGGSLRLSCAASGITFEYNAMGWYRQAPGKERELVAAISLSSGSTYYADSVKGRFTISRDNAKNTVYLQMNCLKPEDTAVYYCNADWQSYGYLWHSSLYYYWGQGTQVTVSS” is “low polyreactivity”; for “QVQLVESGGALDQAGGSLRLSCAASGSTFVVNAMGWYIQAPGKERELVAGITTSGGSTYYADSVKGRFTISRDNAKTTVYLQMNSLKPEDTAVYYCAARRWPYVYRFRAYSGFDYWGQGTHVTVSS” it is “low polyreactivity”.
The entry for “QVQLVESGGGLVQAGGSLRLSCAASGRTSTIYTMGWYRQAPGKESEFVASISAGAGTYYADSVKGRFTISRDNAKNTVYLQMNSLKPEDTAVYYCNASVYWRSTRRHQMDYWGQGTQVTVSS” is “high polyreactivity”; for “QVQLVESGGGLVQAGGSLRLSCAASGRIFCTNAMGWYRHEPGKERELVADITSGGSTNYADSVKGRFTISRDNAKNTVYLQMNSLKPEDTAVYSCAADVIGDLRWYRDEYWGQGTQVTVSS” it is “low polyreactivity”; for “QVQLVESGGGLVQAGGSLRLSCAASGSTFVGYAMGWYRQAPGKERELVAAISSSGSTNYADSVKGRFTISRDNAKNTVYLQMNSLKPEDTAVYYCAALYSYFWLIIDYGYWGQGTQVTVSS” it is “low polyreactivity”.
Regarding “QVQLVESGGGLVQAGGSLRLSCAASGFTFYPYSMGWYRQAPGKERELVAAITRGGSTYYADSVKGRFTISRDNAKNTVFLQMNSLKPEDTAVYYCNAYWQGYGYYYWGQGTQVTVSS”, the “polyreactivity (PSR sort gate)” value is “low polyreactivity”.
The result for “QVQLGESGGGLVEAGGSLRLSCAASGSTFNRYAMGWYRQAPGKERELVAAISFSGGRTYYADSVKGRFTISRDNAKNTVYLQMNSLKPEDTAVYYCAKVVYGYFTRAYTYNYWGHGTQVTVSS” reads “high polyreactivity”.
